According to publication PMC6277039 (Biochemical and biophysical research communications, 2018):
“And” between values parts separate entries of the source, which are not always exact repeats. Equal values may be shown once.

Tests used:
Test in all cases: ITC
[1] = biological target: HSPA1A wild-type (WT) (human, UniProt P0DMV8 1-641)
[2] = biological target: HSPA1A K71A (human, UniProt P0DMV8 1-641, K71A)
[3] = biological target: HSPA1A S16P (human, UniProt P0DMV8 1-641, S16P)
[4] = biological target: HSPA1A S16Y (human, UniProt P0DMV8 1-641, S16Y)
Sequence of HSPA1A S16Y (P0DMV8 whole entry S16Y): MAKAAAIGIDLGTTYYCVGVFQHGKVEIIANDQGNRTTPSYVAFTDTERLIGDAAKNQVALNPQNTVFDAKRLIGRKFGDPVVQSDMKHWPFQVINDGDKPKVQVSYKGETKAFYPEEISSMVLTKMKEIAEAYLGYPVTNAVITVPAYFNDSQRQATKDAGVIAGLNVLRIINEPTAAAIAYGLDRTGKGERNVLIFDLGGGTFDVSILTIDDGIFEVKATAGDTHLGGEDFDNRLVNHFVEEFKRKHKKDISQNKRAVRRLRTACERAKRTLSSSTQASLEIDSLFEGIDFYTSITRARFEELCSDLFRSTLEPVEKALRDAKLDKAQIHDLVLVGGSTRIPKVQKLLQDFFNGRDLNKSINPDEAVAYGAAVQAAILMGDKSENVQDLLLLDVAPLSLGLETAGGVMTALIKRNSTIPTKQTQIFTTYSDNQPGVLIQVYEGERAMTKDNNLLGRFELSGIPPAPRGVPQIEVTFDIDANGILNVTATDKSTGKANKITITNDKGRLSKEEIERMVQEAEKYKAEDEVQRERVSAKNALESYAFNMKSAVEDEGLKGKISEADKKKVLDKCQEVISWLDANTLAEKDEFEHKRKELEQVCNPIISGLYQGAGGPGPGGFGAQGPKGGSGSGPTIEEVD

[5] = biological target: HSPA1A R36C (human, UniProt P0DMV8 1-641, R36C)
Sequence of HSPA1A R36C (P0DMV8 whole entry R36C): as the sequence (P0DMV8 whole entry S16Y) above, with Y16S, R36C counted along it

[6] = biological target: HSPA1A I74T (human, UniProt P0DMV8 1-641, I74T)
Sequence of HSPA1A I74T (P0DMV8 whole entry I74T): as the sequence (P0DMV8 whole entry S16Y) above, with Y16S, I74T counted along it

[7] = biological target: HSPA1A I480N (human, UniProt P0DMV8 1-641, I480N)
Sequence of HSPA1A I480N (P0DMV8 whole entry I480N): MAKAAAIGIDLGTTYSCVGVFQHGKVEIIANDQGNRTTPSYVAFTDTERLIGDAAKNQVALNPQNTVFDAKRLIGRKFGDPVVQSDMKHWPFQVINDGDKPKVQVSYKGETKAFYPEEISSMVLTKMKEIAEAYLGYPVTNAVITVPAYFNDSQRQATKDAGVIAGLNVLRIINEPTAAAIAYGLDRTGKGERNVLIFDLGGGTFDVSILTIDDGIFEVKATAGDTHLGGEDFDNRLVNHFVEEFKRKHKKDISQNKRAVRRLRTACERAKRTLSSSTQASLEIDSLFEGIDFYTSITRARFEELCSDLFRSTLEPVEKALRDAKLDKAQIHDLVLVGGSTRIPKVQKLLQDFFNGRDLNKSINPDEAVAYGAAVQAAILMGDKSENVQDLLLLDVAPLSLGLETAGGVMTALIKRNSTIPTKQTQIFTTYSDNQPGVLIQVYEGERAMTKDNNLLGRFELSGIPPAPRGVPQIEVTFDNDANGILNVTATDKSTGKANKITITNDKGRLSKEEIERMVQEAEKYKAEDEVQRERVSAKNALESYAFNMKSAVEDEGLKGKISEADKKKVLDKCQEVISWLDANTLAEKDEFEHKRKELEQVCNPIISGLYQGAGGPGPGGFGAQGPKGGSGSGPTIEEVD

[8] = biological target: HSPA1A F592S (human, UniProt P0DMV8 1-641, F592S)
Sequence of HSPA1A F592S (P0DMV8 whole entry F592S): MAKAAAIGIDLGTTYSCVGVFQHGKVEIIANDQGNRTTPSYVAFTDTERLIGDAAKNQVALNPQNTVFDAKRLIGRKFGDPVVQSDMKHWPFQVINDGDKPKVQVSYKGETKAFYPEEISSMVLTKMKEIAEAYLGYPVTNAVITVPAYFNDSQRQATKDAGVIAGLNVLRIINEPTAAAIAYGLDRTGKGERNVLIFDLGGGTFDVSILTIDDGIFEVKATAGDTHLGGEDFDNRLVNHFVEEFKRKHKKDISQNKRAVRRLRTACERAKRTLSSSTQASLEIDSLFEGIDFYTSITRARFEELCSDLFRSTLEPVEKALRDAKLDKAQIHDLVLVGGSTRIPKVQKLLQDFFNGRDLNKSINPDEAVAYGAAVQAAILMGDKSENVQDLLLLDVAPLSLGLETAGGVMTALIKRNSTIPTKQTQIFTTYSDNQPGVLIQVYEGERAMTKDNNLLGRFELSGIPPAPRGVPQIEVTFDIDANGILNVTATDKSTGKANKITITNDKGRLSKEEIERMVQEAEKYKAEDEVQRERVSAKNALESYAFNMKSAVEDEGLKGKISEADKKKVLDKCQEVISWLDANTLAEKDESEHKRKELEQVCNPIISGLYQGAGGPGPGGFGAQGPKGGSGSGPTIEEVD

Sequence of HSPA1A wild-type (WT) (P0DMV8 whole entry): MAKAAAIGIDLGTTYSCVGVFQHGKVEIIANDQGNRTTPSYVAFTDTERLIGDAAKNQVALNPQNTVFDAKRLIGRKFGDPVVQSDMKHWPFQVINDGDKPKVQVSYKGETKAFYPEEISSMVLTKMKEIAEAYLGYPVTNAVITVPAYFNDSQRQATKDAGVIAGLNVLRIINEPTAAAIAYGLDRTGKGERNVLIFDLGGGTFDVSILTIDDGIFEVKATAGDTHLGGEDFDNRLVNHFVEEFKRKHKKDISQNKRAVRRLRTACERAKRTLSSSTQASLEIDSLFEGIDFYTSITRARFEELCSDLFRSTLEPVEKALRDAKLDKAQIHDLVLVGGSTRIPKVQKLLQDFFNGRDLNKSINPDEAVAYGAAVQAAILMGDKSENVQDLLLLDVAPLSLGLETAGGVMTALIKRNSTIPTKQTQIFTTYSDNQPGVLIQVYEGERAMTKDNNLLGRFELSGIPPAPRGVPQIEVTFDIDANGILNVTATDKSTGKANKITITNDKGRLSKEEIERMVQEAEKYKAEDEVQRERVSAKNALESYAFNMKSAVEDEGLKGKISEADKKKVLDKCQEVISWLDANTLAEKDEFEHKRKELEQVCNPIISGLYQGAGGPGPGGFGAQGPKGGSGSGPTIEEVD
Sequence of HSPA1A S16P (P0DMV8 whole entry S16P): as the sequence (P0DMV8 whole entry S16Y) above, with Y16P counted along it
Sequence of HSPA1A K71A (P0DMV8 whole entry K71A): as the sequence (P0DMV8 whole entry S16Y) above, with Y16S, K71A counted along it

**Q.** What does the source list for NIVAKKK [protein substrate (peptide NIVAKKK)]?
**A.** Kd [1]: 335 nM and 529 nM and 364 nM; dH [1]: -25.8 kJ/mol and -19.8 kJ/mol and -20 kJ/mol; stoichiometry N [1]: 0.993 and 1 and 1.02; Kd [2]: 528 nM and 615 nM and 635 nM; dH [2]: -11.6 kJ/mol and -13.9 kJ/mol and -12 kJ/mol; stoichiometry N [2]: 0.982 and 1 and 0.989; Kd [3]: 738 nM and 679 nM and 599 nM; dH [3]: -12.5 kJ/mol and -13.4 kJ/mol and -13.5 kJ/mol; stoichiometry N [3]: 0.991 and 1 and 1.03; Kd [4]: 335 nM and 331 nM and 315 nM; dH [4]: -42.7 kJ/mol and -41.7 kJ/mol and -40.8 kJ/mol; stoichiometry N [4]: 1.04 and 1.02 and 1.01; Kd [5]: 576 nM and 472 nM and 509 nM; dH [5]: -15.7 kJ/mol and -15.9 kJ/mol and -16.2 kJ/mol; stoichiometry N [5]: 1.03 and 1 and 0.984; Kd [6]: 999 nM and 995 nM and 935 nM; dH [6]: -18.9 kJ/mol and -19.7 kJ/mol and -20.3 kJ/mol; stoichiometry N [6]: 0.998 and 0.985 and 1.01; Kd [7]: 710 nM and 661 nM and 697 nM; dH [7]: -18.5 kJ/mol and -21.2 kJ/mol and -19.7 kJ/mol; stoichiometry N [7]: 1.02 (2×) and 1.01; Kd [8]: 559 nM and 500 nM and 374 nM; dH [8]: -16.1 kJ/mol and -19.5 kJ/mol and -15.3 kJ/mol; stoichiometry N [8]: 1.07 and 1.04 and 1.06
